Molecular target: lg3bp_human LGALS3BP (UniProt Q08380)
Sequence (Q08380 whole entry): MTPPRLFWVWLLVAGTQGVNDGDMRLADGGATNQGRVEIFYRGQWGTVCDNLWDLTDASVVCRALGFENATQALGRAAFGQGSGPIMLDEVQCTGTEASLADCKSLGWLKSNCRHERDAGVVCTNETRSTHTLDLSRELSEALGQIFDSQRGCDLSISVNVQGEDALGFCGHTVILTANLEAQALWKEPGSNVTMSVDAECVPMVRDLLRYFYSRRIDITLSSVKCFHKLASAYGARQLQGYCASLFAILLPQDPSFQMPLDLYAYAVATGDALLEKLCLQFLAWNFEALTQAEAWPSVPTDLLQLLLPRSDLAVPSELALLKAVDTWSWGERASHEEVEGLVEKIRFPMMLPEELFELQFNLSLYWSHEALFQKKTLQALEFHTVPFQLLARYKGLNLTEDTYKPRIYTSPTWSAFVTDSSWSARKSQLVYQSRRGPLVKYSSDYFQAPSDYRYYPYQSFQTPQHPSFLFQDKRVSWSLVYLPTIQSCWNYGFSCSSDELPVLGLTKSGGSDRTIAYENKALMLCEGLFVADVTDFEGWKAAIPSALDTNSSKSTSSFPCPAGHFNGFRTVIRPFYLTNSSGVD

Chain of Extracellular sulfatase Sulf-2 (Homo sapiens), Q8IWU5 S583A (Q8IWU5 whole entry S583A): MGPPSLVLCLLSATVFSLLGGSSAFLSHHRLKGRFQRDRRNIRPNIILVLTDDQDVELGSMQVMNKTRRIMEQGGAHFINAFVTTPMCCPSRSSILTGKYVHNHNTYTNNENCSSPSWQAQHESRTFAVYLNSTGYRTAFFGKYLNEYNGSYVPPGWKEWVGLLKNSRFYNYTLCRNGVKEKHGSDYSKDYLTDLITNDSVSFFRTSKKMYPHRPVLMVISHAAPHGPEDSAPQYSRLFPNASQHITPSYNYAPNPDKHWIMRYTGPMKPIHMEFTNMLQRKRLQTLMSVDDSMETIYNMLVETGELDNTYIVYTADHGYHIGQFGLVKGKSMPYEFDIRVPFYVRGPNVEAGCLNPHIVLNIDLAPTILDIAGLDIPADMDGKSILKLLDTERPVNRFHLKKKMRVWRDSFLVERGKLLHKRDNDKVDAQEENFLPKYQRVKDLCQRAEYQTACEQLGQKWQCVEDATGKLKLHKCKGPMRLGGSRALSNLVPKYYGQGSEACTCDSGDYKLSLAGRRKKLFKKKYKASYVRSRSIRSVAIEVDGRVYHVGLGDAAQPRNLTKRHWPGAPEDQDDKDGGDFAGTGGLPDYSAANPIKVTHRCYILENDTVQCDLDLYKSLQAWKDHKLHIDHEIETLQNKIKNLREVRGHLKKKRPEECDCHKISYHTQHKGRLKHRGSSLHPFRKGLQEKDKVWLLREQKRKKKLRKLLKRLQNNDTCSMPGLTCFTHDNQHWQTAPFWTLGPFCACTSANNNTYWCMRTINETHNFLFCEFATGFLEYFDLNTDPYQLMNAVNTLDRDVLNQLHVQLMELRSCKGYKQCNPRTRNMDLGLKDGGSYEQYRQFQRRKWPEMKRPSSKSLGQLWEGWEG

effect of a mutation on the interaction: increasing interaction strength
Substance: Extracellular sulfatase Sulf-2 (Homo sapiens), Q8IWU5 S583A
